Patent publication US20160136272A1, “METHODS FOR RESTORING CORTICOSTEROID SENSITIVITY” (priority 2013, published 2016)

B1: 31C3: anti-human TLR3 mAb, cell deposited as 31C3.1, CNCM I-4186; VH/VL SEQ ID NO 75/76 (antibody, listed as Mus musculus, V domains shown)
VH: MGWSWIFLFLLSGTAGVLSEVQLQQSGPELVKPGASVKISCKPSGYSFTAYYMHWVKQSHVKSLEWIGRINPYNGATSYNRNFKDKASLTVDKSSSTAYMELHSLTSEDSAVYYCARSGGNTYFDYWGQGTTLTVS
VL: MSVPTQVLGLLLLWLTGARCDIQMTQSPASLSASVGETVTITCRASENIYSSLAWYQQKQGKSPQLLVYNAKTLAEGVPSRFSGSGSGTQFSSLKINSLQPEDFGTYYCQHHYGTPPTFGGGTKLEIK
B2: 34A3: anti-human TLR3 mAb; VH/VL SEQ ID NO 77/78 (antibody, listed as Mus musculus, V domains shown)
VH: MEWRWIFLFLLSGTTGVHSEIQLQQSGPELVKPGASVKVSCKASGYVFTTYSIYWVKQSHGKSLEWIGYIDPYNGDTSYNQKFKGKATLTVDKSSSTAYMHLNSLTSEDSTVYYCAREGNYYGYFDYWGQGTTLTVS
VL: MDFQVQIFSFLLMSASVIMSRGQIVLTQSPALMSASPGEKVTMTCSASSSVSYMFWYQQKPRSSPKPWIYLTSNLASGVPARFSGSGSGTSYSLTISSMEAEDAATYYCQQWTGNPPTFGGGTKLEIK
B3: 37B7: anti-human TLR3 Ab used in Example 11; VH/VL SEQ ID NO 71/72 (antibody, listed as Rattus norvegicus, V domains shown)
VH: QVQLQQSGTELVKPGSSVKISCKASGYTFTSNYMHWIRQLPGNGLEWIGWIFPGDGDTNYNQKFNGKATLTADKSSSTAYMQLSSLTSEDYAVYFCARSDGDWYFDFWGPGTMVTVSS
VL: DIQMTQSPGSLSASLGETVTIQCQASEDIYSGLAWYQQKPRKSPQLLISAASRLQDGVPSRFSGSGSGTQYSLKISSMQTEDEGVYFCQQGVKYPNTFGPGTKLELK

Key:
[1] = tested on: PBMC; assay: IP-10 production by donor PBMC in response to dsRNA and drug combinations (ELISA); format: cell-based, human; conditions: for IP-10 production in response to polyIC, antibody combined with methotrexate, dexamethasone or Humira / IP-10 production in response to polyAU, antibody combined with methotrexate, dexamethasone or Humira: antibody 50 μg/ml plus dose range of drug; for IP-10 production in response to polyIC, antibody combined with methotrexate, dexamethasone or Humira / IP-10 production in response to polyIC: 30 μg/ml poly(I:C); for IP-10 production in response to polyIC, antibody combined with methotrexate, dexamethasone or Humira: donors 1 and 2; for IP-10 production in response to polyAU, antibody combined with methotrexate, dexamethasone or Humira: 300 μg/ml IPH3102, donor 2; for IP-10 production in response to polyIC / IP-10 production in response to polyAU: antibody 50 μg/ml; for IP-10 production in response to polyIC: 24 h, human donors 1 and 2; for IP-10 production in response to polyAU: 300 μg/ml IPH3102, 24 h, human donor 2
Experimental: IP-10 production was assessed in human donors in response to polyAU (IPH3102), believed to be a specific agonist of TLR3, or plC, believed to be an agonist of TLR3 as well as other dsRNA receptors such as RIG-I and MDA-5. Fresh PBMC were isolated from whole blood of two independent donors. 1.5×10^6 (donor #1) and 3×10^6 (donor #2) PBMC per ml were incubated in flat-bottom 96W plates in the presence of 50 μg/ml 31C3 or 34A3 anti-human TLR3 mAbs and a dose range of methotrexate (300, 30 and 3 μg/ml), dexamethasone (200, 20, 2 μg/ml) or Humira® (100, 10, 1 μg/ml). Cells were incubated 1 hr at 37° C. prior addition of 300 μg/ml IPH3102 or 30 μg/ml poly(I:C). Cells were incubated for 24 additional hours at 37° C. Supernatant were then harvested to quantify IP10 production by ELISA. Cells were then recovered, stained with 7-AAD and analyzed by flow cytometry (FACS) to evaluate potential toxic effects of any drugs.

[2] = tested on: BEAS-2B cell line; assay: IL-6 and IP-10 production by BEAS-2B cells in response to polyAU (ELISA); format: cell-based, human; conditions: 300 μg/ml IPH3102, 24 h
Experimental: IL-6 and IP-10 production was assessed in PBMC and virus-transformed lung epithelial BEAS-2B cell line in response to high molecular weight polyAU (IPH3102), a specific agonist of TLR3. Experiments with BEAS-2B were performed in Bronchial Epithelial Growth Medium (Lonza, #CC-3170). 2×10^4 BEAS-2B per well were plated in flat-bottom 96W plates in 100 μl culture medium and incubated over night at 37° C. A part of the cells was treated for 24-supplemental hours with 1000 UI/ml Intron A (Schering Plough, IFN-alpha 2b). Medium was discarded and 37B7 anti-human TLR3 Ab (0.01 and 0.1 μg/ml in the condition without Intron A and 0.01 and 0.3 μg/ml after treatment with Intron A) was added to the culture. Cells were incubated 30 min at 37° C. prior addition of Dexamethasone (1, 0.1, 0.01, 0.001 μg/ml in the condition […] and 10, 1, 0.1, 0.01 μg/ml after treatment with Intron A) or Budesonide (1, 0.1, 0.01, 0.001 μg/ml). Cells were incubated 30-additional min at 37° C. before addition of 300 μg/ml IPH3102. Cells were finally incubated for 24-additional hours and supernatants were harvested to quantify IL-6 and IP-10 production by ELISA.

Molecule | IP-10 production in response to polyIC, antibody combined with methotrexate, dexamethasone or Humira [1] | IP-10 production in response to polyAU, antibody combined with methotrexate, dexamethasone or Humira [1] | IP-10 production in response to polyIC [1] | IP-10 production in response to polyAU [1] | IL-6 production by BEAS-2B, anti-TLR3 Ab combined with dexamethasone or budesonide ([2]; highest anti-TLR3 Ab dose) | block of BEAS-2B IL-6 production ([2]; highest concentration of anti-TLR3 Ab) [%]
B1 | reduce IP-10 further | reduce IP-10 further | substantially reduce IP-10 production | substantially reduce IP-10 production |  | 
B2 | reduce IP-10 further | reduce IP-10 further | substantially reduce IP-10 production | substantially reduce IP-10 production |  | 
B3 |  |  |  |  | strong additive inhibition | ~50
